Experimental data: patent US20240228612A1 (SICHUAN KELUN BIOTECH BIOPHARMACEUTICAL, published 2024)
Read-outs that look alike come from different tables or passages of the source. One block for each binder: values may come before it.

Assays:
[1] = target: T1, human Nectin-4 protein (human, UniProt Q96NY8 32-349); experiment: ELISA, coated human Nectin-4
T1 construct: Purified protein used for coating in ELISA and as analyte in Octet; also called human Nectin-4 antigen
T1 sequence (looked up): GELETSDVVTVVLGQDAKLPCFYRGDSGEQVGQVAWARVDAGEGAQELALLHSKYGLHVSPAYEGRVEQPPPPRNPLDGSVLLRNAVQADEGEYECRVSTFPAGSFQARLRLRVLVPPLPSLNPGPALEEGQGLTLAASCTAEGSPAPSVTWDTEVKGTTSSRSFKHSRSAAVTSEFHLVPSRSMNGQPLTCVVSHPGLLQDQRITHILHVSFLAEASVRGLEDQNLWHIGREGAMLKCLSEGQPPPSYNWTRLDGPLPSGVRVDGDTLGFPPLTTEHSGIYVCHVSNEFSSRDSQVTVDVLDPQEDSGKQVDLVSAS
Description: Human Nectin-4 (Sino Biological, Cat: 19771-H08H) was diluted to 1 μg/mL with carbonate (CBS) buffer, added to a 96-well plate at a volume of 100 μL/well, and placed at 4° C. for 16-20 h. The CBS buffer in the 96-well plate was discarded by pipetting, the plate was washed once with PBST (pH 7.4, PBS containing 0.05% Tween 20) buffer, added with 200 μL/well of skim milk powder (blocking solution) containing 2% PBST, incubated for 1 h at room temperature for blocking. The blocking solution was removed, and the plate was washed three times with PBST buffer. The anti-Nectin-4 mouse antibody to be tested was diluted with PBST/2% skim milk powder to an appropriate concentration, then added to the plate at a volume of 100 μL/well, and incubated at room temperature for 1.5 h. The reaction system was removed, and the plate was washed three times with PBST, and 50 μL/well of HRP-labeled goat anti-mouse IgG secondary antibody (purchased from the Jackson Laboratory) diluted with PBST/1% skim milk powder (dilution ratio 1:5000) was added, and incubated at room temperature for 1 h. After the plate was washed 3 times with PBST, 100 μL/well of TMB was added, and incubated at room temperature for 5-10 min for color development. The color development was stopped by adding 50 μL/well of 0.2 M sulfuric acid. Microplate reader was used to detect optical density (O.D.) at dual wavelengths 450/620 nm.

[2] = target: T1, human Nectin-4 protein; experiment: competitive ELISA, coated Nectin-4; competitor biotin-labeled Nectin-1-hFc
Description: Human Nectin-4 is linked to another Nectin-4 molecule or Nectin-1 molecule through the IgV domain. Because 31HZ, 56HZ and 74HZ all bind to the IgV domain of Nectin-4, the competitive activity of the three antibodies was detected by competitive ELISA. The specific steps were as follows: Nectin-4 protein was diluted to 2 μg/mL with CBS coating solution, 100 μL per well, and incubated at 37° C. for 2 hours; washing was performed once with 300 μL PBST, PBS (2% BSA) was then added, 100 μL per well, and incubation was performed at 37° C. for 2 hours; biotin-labeled Nectin-1-hFc was diluted with PBS (2% BSA) to 20 μg/mL; the antibody to be detected was diluted with PBS (2% BSA), wherein the dilution of 31HZ and 74HZ was started from 3.73 μg/mL, 3-fold dilution, and 9 concentration points, the dilution of 56HZ was started from 1.25 μg/mL, 2-fold dilution, and 10 concentration points; the above two diluted solutions were mixed well in equal volumes, and then added to the corresponding well at 100 μL/well, and incubation was performed at room temperature for 2 hours; washing was performed three times with 300 μL PBST; HRP-streptavidin was diluted with PBS (2% BSA) at a ratio of […], and added to the corresponding well at 100 μL/well, incubation was performed at room temperature for 1 hour; washing was performed five times with 300 μL of PBST; 100 μL of TMB was added to the corresponding well, color development was performed at room temperature for 10 minutes, and then terminated by adding 50 μL of 2N H₂SO₄, and a microplate reader was used for collecting readings at 450 nm.

[3] = target: T2, human Nectin-4 on cell membrane surface (human, UniProt Q96NY8 32-510); experiment: flow cytometry on T47D cells
T2 construct: whole, on cells; also called A549-Nectin-4; T24-Nectin-4
T2 sequence (looked up): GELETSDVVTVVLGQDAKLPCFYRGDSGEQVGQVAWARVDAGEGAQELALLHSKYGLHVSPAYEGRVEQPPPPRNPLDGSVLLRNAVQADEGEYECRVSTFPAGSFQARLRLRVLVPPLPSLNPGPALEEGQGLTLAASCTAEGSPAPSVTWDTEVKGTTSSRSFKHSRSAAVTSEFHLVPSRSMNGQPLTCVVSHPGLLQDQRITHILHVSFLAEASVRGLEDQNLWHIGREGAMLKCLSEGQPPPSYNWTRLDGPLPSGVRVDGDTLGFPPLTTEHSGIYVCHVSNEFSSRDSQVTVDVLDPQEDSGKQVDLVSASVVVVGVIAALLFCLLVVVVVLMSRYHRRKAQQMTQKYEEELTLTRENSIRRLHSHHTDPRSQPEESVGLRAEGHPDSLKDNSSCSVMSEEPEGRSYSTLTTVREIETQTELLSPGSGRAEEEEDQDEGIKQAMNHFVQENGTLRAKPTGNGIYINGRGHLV
Description: The specific steps were as follows: T47D cells were digested, resuspended by centrifugation, and washed twice with PBS; the cells were resuspended in PBS (containing 1% BSA), and spread into a 96-well tip-bottom plate at 3×10⁵ cells/well, with a volume of 50 μl per well; 50 μL of the antibody to be tested was added to each well, starting at a final concentration of […], 4-fold gradient dilution, a total of 10 concentration points; Human IgG was used as a negative control; after being mixed well, the resulting mixture was reacted in the dark at 4° C. for 1 hour; washing was performed 3 times with PBS, FITC-labeled anti-human Fc secondary antibody (brand: BioLegend, product number: 409322) was added, incubated at 4° C. for 0.5 hours in the dark; washing was performed 3 times with PBS, and detection was carried out using a flow cytometer (flow cytometer brand: Beckman, model: Cytoflex).

[4] = target: T1, human Nectin-4 protein; experiment: ELISA, coated human Nectin-4, anti-human-HRP
[5] = target: T3, cynomolgus monkey Nectin-4 protein (cynomolgus monkey); experiment: ELISA, coated antigen
T3 construct: also called cynomolgus monkey Nectin-4 antigen
Text: (§1) The affinity of anti-human Nectin-4 humanized monoclonal antibodies to Nectin-4 protein of different species was detected by ELISA.

[6] = target: T1, human Nectin-4 protein; experiment: ELISA, coated antigen
Text: as §1

[7] = target: T1, human Nectin-4 protein; experiment: ELISA, coated human Nectin-4, anti-human-HRP; remark: listed apart in the source
[8] = target: T3, cynomolgus monkey Nectin-4 protein; experiment: ELISA, coated cynomolgus monkey Nectin-4, anti-human-HRP
[9] = target: T3, cynomolgus monkey Nectin-4 protein; experiment: as above; remark: listed apart in the source
[10] = target: T2, human Nectin-4 on cell membrane surface; experiment: flow cytometry on NCI-N87 cells
[11] = target: T1, human Nectin-4 protein; experiment: ELISA, coated human Nectin-4, anti-human-HRP; remark: listed apart in the source
[12] = target: T3, cynomolgus monkey Nectin-4 protein; experiment: BLI (Octet Fortebio), antibody on ProA sensor, Nectin-4 as analyte, 1:1 global fit
Description: (§2) The dynamic affinity of anti-human Nectin-4 humanized monoclonal antibodies was detected using Octet Fortebio®. The main steps comprised: firstly, the anti-human Nectin-4 humanized monoclonal antibody (concentration of 5 μg/mL) was immobilized on ProA sensor, then subjected to binding reaction with human or cynomolgus monkey Nectin-4 (gradiently diluted to 400 nM, 200 nM, 100 nM, 50 nM, 25 nM, 12.5 nM, 6.25 nM, 0 nM), and the anchored product in the solid phase obtained through fully reaction was subjected to dissociation reaction in PBST buffer. After the completion of the experiment, the results were analyzed by using Data Analysis 11.0 software at 1:1 mode to perform global fitting, thereby obtaining the affinity constant of antibody to antigen.

[13] = target: T1, human Nectin-4 protein; experiment: as above
Description: as §2

EC50 [1]: 0.0549 nM
B1: anti-human Nectin-4 murine monoclonal antibody 31# (antibody, V domains shown)
VH: EVQLQQPGADLVRPGASVKLSCKASGYTFTDYWMNWVKLRPGQGLEWIGMIHPSDSETRLNQKFKDKATLTVDKSSSTAYMQLSSPTSEDSAVYYCARWDFRIYYAMDYWGQGTSVTVSS
VL: DVVITQSPSSLAMSVGQKVTMSCKSSQSLLNTNSQKNYLAWYQQKPGQSPKLLVYFASTRESGVPDRFIGSGSGTDFTLTITSVQAEDLADYFCQQHYSTPLTFGAGTKLEIK
notes: Murine antibody purified by Protein A from hybridoma supernatant

EC50 [1]: 0.0694 nM
B2: anti-human Nectin-4 murine monoclonal antibody 74# (antibody, V domains shown)
VH: EVQLQQPGAELVRPGASVKLSCKASGYTFINYWMNWVKQRPGQGLEWIGMIHPSDSATRLNQKFKDKATLTVDKSSSTAYMQLSSPTSEDSAVYYCARWGNFYTVNAWYYFDYWGHGTTLTVSS
VL: DIVITQSPSSLAMSVGQKVTMSCKSSQTLLNSNTQKNYLAWYQQKPGQSPKLLFYFASTRESGVPDRFIGSGSGTNFTLTISSVQAEDLADYFCQQHYSTPLTFGAGTKLEIK
notes: as for B1

EC50 [1]: 0.0363 nM
B3: anti-human Nectin-4 murine monoclonal antibody 56# (antibody, V domains shown)
VH: QVQLKESGPGLVKPSQSLSLTCTVTGYSITSDYDWHWIRHFPGNMLEWMGYISFSGRTYYNPSLKSRISITHDTSKNHFFLRLNSVTTEDTATYYCARGNYDGFDYWGQGTTLTVSS
VL: DIQLTQSPAILSVSPGERVSFSCRASQNIGTSIHWYQHRTNGSPRLLIKFASESISGIPSRFSGSGSGTDFTLSINSVESEDIADYYCQQSKSWPTYTFGGGTKLEIK
notes: as for B1

IC50 [2]: 27.1 ng/mL | EC50 [3]: 10.1 ng/mL | EC50 (read off the curve) [4]: ~7 ng/mL | EC50 [5]: 6 ng/mL | EC50 [6]: 7.1 ng/mL | EC50 (read off the curve) [7]: ~9 ng/mL | EC50 (read off the curve) [8]: ~7 ng/mL | EC50 (read off the curve) [9]: ~6 ng/mL | EC50 [10]: 22.1 ng/mL | EC50 (read off the curve) [11]: ~5 ng/mL | Kd [12]: 33.6 nM | Kd [13]: 28.3 nM
B4: Enfortumab (antibody, V domains shown)
VH: EVQLVESGGGLVQPGGSLRLSCAASGFTFSSYNMNWVRQAPGKGLEWVSYISSSSSTIYYADSVKGRFTISRDNAKNSLSLQMNSLRDEDTAVYYCARAYYYGMDVWGQGTTVTVSS
VL: DIQMTQSPSSVSASVGDRVTITCRASQGISGWLAWYQQKPGKAPKFLIYAASTLQSGVPSRFSGSGSGTDFTLTISSLQPEDFATYYCQQANSFPPTFGGGTKVEIKR
